Measured values published in patent publication US20030087316A1, “Diagnostic markers of liver dysfunction” (priority 2001, published 2003).
Entries after “also recorded” stand apart in the source; their conditions may differ.

T1: C1s (Homo sapiens, UniProt P09871)
T1 construct: purchased Advanced Research Technologies (San Diego, Calif.)
T1 sequence (P09871 438-688 limits assumed): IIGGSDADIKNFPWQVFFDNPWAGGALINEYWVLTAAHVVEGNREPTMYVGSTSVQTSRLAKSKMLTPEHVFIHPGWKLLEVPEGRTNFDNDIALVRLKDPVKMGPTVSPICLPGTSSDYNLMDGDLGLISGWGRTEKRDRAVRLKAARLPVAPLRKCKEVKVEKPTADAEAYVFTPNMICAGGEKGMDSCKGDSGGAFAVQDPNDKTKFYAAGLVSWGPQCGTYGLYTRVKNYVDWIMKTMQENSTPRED
T1 sequence (P09871 16-437 partner limits assumed): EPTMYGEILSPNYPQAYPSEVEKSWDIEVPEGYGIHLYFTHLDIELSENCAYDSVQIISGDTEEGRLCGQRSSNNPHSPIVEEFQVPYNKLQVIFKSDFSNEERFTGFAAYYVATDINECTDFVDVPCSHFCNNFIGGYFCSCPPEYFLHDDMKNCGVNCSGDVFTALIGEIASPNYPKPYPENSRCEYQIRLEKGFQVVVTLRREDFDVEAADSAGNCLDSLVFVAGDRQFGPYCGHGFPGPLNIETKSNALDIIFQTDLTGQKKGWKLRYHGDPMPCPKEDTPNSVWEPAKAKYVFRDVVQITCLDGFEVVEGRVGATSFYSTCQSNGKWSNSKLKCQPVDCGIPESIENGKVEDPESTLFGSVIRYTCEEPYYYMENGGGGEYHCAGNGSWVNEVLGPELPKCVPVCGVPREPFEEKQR


Tests used:
[1] = tested on: proteinase(s) in EDTA plasma from LTR (kallikrein-like peptidase); test: Peptidase activity in EDTA plasma from liver transplant recipients (LTR), chromogenic substrate, OD 405 nm; format: biochemical, human; conditions: for % Residual activity, LTR 1 / % Residual activity, LTR 2 / % Residual activity, LTR 3: substrate AGLTR-pNA; for Inhibition of the LTR plasma peptidase activity, in words: text on Tables 2 and 3, concentrations as there
Protocol: Blood samples were drawn into 5 ml EDTA tubes (Venoject; Terumo Corp., Elkton, Md.). The plasma was collected immediately by centrifugation at 2,000×g for 15 min at 4° C. The plasma samples were either processed immediately for analysis or stored at −70° C. Frozen samples were thawed at 4° C. prior to analysis.
(§1) The peptidase activity in plasma samples or of the purified enzymes were routinely determined at 37° C. in a 96-well plate. Each well contained 0.5 mM substrate in 100 μl of Tris-buffered saline (TBS)-EDTA buffer (50 mM Tris/150 mM NaCl/10 mM EDTA, pH 7.8) and the reaction was monitored using a microplate reader (Titertek Multiscan, Labsystems, Needham Heights, Mass.).
(§2) The enzymes C1s (100 nM), plasm in (100 nM), thrombin (100 nM), plasma kallikrein (20 nM), β-FXIIa (100 nM), trypsin (16 nM) or LTR EDTA plasma samples were incubated for 60 min at 4° C. with TBS-EDTA buffer containing either LBTI (1 mg/ml), SBTI (I mg/ml), aprotinin (0.075 mg/ml), benzamidine (50 mM), or Futhan (0.1 mg/ml), before mixing with the substrate. EDTA plasma samples from LTR were diluted 10 or 20-fold with TBS-EDTA. The chromogenic substrate AGLTR-pNA was used for all enzymes and LTR samples except C1s where the substrate S2288 was used. Based on the initial rate of increase in OD at 405 nm, the residual free enzyme level was calculated and expressed as a percentage of total activity without inhibitor added.
(§3) Ten-fold diluted normal EDTA plasma was added to each enzyme. The enzymes C1s (100 nM), plasmin (100 nM), thrombin (100 nM), plasma kallikrein (20 nM), β-FXIIa (100 nM), trypsin (16 nM) or LTR EDTA plasma samples were incubated for 60 min at 4° C. with TBS-EDTA buffer containing either C1INH (40 μg/ml), bdellin (50 μg/ml), hirudin (50 U/ml), PPACK 11(10 μM), or CTI (100 μg/ml), before adding the substrate. LTR samples were 10 or 20-fold diluted with TBS-EDTA. The chromogenic substrate AGLTR-pNA was used for all enzymes and LTP samples except C1s where the substrate S2288 was used. Based on the initial rate of increase in OD at 405 nm, the residual free enzyme was calculated and expressed as a percentage of total activity determined without inhibitor added.

[2] = molecular target: T2, thrombin (Homo sapiens, UniProt P00734); test: Peptidase (amidolytic) activity of purified thrombin, chromogenic substrate, OD 405 nm; format: biochemical
T2 construct: purchased Calbiochem-Novabiochem Corp (La Jolla, Calif.)

[3] = molecular target: T3, β-Factor XIIa (β-FXIIa) (Homo sapiens, UniProt P00748); test: Peptidase (amidolytic) activity of purified β-FXIIa, chromogenic substrate, OD 405 nm; format: biochemical; conditions: Table 2; β-FXIIa 100 nM, substrate AGLTR-pNA; 60 min at 4° C. with LBTI 1 mg/ml, SBTI I mg/ml, aprotinin 0.075 mg/ml, benzamidine 50 mM or Futhan 0.1 mg/ml
T3 construct: β-Factor XIIa (β-FXIIa) was kindly provided by Dr. Mary J. Heeb; gift of Dr. Mary J. Heeb, The Scripps Research Institute
Protocol: as §1
(§4) […] EDTA plasma samples from LTR were diluted 10 or 20-fold with TBS-EDTA. The chromogenic substrate AGLTR-pNA was used for all enzymes and LTR samples except C1s where the substrate S2288 was used. Based on the initial rate of increase in OD at 405 nm, the residual free enzyme level was calculated and expressed as a percentage of total activity without inhibitor added.
(§5) Ten-fold diluted normal EDTA plasma was added to each enzyme. […] LTR samples were 10 or 20-fold diluted with TBS-EDTA. The chromogenic substrate AGLTR-pNA was used for all enzymes and LTP samples except C1s where the substrate S2288 was used. Based on the initial rate of increase in OD at 405 nm, the residual free enzyme was calculated and expressed as a percentage of total activity determined without inhibitor added.

[4] = molecular target: T1, C1s; test: Peptidase (amidolytic) activity of purified C1s, chromogenic substrate, 96-well plate, OD 405 nm; format: biochemical; conditions: for % Residual activity, C1s: Table 2, C1s 100 nM, substrate S2288, 60 min at 4° C. with LBTI 1 mg/ml, SBTI I mg/ml, aprotinin 0.075 mg/ml, benzamidine 50 mM or Futhan 0.1 mg/ml, % of total activity without inhibitor; for Inhibition of C1s, in words: text on Tables 2 and 3, concentrations as there
Protocol: as §1, §2, §3

[5] = molecular target: T4, plasma kallikrein (Homo sapiens, UniProt P03952); test: Peptidase (amidolytic) activity of purified plasma kallikrein, chromogenic substrate, OD 405 nm; format: biochemical; conditions: for % Residual activity, Plasma Kallikrein: Table 2, plasma kallikrein 20 nM, substrate AGLTR-pNA, 60 min at 4° C. with LBTI 1 mg/ml, SBTI I mg/ml, aprotinin 0.075 mg/ml, benzamidine 50 mM or Futhan 0.1 mg/ml; for Inhibition of purified plasma kallikrein activity, in words: text on Tables 2 and 3, concentrations as there
T4 construct: The light chain of kallikrein contains the enzymatic domain; purchased Calbiochem-Novabiochem Corp (La Jolla, Calif.)
Protocol: as §1, §4, §5

[6] = tested on: trypsin; test: Peptidase (amidolytic) activity of purified trypsin, chromogenic substrate, OD 405 nm; format: biochemical; conditions: Table 2; for Inhibition of trypsin amidolytic activity, in words: concentrations as there; for % Residual activity, Trypsin: trypsin 16 nM, substrate AGLTR-pNA, 60 min at 4° C. with LBTI 1 mg/ml, SBTI I mg/ml, aprotinin 0.075 mg/ml, benzamidine 50 mM or Futhan 0.1 mg/ml
Protocol: as §1, §2

[7] = molecular target: T5, plasmin (Homo sapiens, UniProt P00747); test: Peptidase (amidolytic) activity of purified plasmin, chromogenic substrate, OD 405 nm; format: biochemical; conditions: Table 2; for Inhibition of plasmin amidolytic activity, in words: concentrations as there; for % Residual activity, Plasmin: plasmin 100 nM, substrate AGLTR-pNA, 60 min at 4° C. with LBTI 1 mg/ml, SBTI I mg/ml, aprotinin 0.075 mg/ml, benzamidine 50 mM or Futhan 0.1 mg/ml
T5 construct: purchased Calbiochem-Novabiochem Corp (La Jolla, Calif.)
Protocol: as §1, §2, §3

[8] = Table 2, LTR 1 EDTA plasma diluted 10 or 20-fold, 60 min at 4° C. with LBTI 1 mg/ml, SBTI I mg/ml, aprotinin 0.075 mg/ml, benzamidine 50 mM or Futhan 0.1 mg/ml
[9] = Table 2, LTR 2 EDTA plasma diluted 10 or 20-fold, 60 min at 4° C. with LBTI 1 mg/ml, SBTI I mg/ml, aprotinin 0.075 mg/ml, benzamidine 50 mM or Futhan 0.1 mg/ml
[10] = Table 2, LTR 3 EDTA plasma diluted 10 or 20-fold, 60 min at 4° C. with LBTI 1 mg/ml, SBTI I mg/ml, aprotinin 0.075 mg/ml, benzamidine 50 mM or Futhan 0.1 mg/ml
[11] = Table 2, thrombin 100 nM, substrate AGLTR-pNA, 60 min at 4° C. with LBTI 1 mg/ml, SBTI I mg/ml, aprotinin 0.075 mg/ml, benzamidine 50 mM or Futhan 0.1 mg/ml

T5 sequence (P00747 581-810 limits assumed, species assumed): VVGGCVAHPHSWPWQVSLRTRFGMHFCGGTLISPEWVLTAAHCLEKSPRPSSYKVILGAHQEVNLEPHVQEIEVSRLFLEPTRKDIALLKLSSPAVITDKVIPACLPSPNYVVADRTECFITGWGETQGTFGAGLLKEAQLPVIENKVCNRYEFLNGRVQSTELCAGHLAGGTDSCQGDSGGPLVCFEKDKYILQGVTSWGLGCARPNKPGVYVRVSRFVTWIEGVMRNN
T5 sequence (P00747 97-580 partner limits assumed, species assumed): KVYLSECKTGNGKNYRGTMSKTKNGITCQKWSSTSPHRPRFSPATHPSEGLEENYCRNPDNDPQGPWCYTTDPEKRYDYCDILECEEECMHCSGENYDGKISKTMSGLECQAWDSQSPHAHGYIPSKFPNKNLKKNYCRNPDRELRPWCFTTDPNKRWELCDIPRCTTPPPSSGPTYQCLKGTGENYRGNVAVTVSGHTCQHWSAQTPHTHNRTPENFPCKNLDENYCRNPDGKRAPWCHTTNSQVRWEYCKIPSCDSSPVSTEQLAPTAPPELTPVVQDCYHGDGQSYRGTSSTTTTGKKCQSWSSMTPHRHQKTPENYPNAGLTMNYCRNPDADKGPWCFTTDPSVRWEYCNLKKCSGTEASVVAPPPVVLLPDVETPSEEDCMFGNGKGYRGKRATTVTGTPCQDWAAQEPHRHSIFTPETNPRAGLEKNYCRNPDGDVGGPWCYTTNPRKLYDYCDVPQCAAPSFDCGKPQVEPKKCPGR
T4 sequence (P03952 391-638 limits assumed): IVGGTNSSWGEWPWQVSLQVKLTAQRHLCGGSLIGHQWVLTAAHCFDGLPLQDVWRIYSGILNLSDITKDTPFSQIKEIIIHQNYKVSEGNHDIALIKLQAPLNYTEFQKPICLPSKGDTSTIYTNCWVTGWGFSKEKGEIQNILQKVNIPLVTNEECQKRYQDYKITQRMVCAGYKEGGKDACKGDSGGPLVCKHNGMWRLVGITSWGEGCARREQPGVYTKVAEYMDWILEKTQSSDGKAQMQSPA
T4 sequence (P03952 20-390 partner limits assumed): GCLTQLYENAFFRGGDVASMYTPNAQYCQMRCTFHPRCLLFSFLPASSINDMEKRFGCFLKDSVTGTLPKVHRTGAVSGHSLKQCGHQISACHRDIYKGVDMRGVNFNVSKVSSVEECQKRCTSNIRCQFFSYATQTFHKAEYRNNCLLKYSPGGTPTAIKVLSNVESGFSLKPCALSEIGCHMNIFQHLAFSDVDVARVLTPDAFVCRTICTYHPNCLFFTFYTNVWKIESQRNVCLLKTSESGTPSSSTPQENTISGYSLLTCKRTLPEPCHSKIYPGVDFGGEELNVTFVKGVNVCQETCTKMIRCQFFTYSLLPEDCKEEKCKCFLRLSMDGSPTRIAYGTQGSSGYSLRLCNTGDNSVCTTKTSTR
T3 sequence (P00748 373-615 limits assumed, other chains not shown): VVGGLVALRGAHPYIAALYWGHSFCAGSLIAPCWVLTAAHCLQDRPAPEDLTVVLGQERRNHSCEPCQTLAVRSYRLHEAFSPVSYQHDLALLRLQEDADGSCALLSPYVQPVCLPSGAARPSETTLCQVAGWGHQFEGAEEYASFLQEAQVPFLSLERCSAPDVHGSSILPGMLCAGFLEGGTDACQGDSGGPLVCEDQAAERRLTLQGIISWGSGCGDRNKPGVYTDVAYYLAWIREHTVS

Inhibition of the LTR plasma peptidase activity, in words [1] | Inhibition of thrombin by hirudin (FIG. 8), in words ([2]; 50 U/ml hirudin, substrate AGLTR-pNA, versus time at 37° C.) | Inhibition of thrombin, in words ([2]; Table 3) | Inhibition of C1s, in words [4] | % Residual activity, Plasma Kallikrein [5] [%] | Inhibition of purified plasma kallikrein activity, in words [5] | Inhibition of trypsin amidolytic activity, in words [6] | Inhibition of plasmin amidolytic activity, in words [7] | Molecule | % Residual activity, LTR 1 ([1]; Table 3, LTR 1 EDTA plasma 10 or 20-fold diluted, 60 min at 4° C. with C1INH 40 μg/ml, bdellin 50 μg/ml, hirudin 50 U/ml, PPACK 11 10 μM or CTI 100 μg/ml) [%] | % Residual activity, LTR 2 ([1]; Table 3, LTR 2 EDTA plasma 10 or 20-fold diluted, 60 min at 4° C. with C1INH 40 μg/ml, bdellin 50 μg/ml, hirudin 50 U/ml, PPACK 11 10 μM or CTI 100 μg/ml) [%] | % Residual activity, LTR 3 ([1]; Table 3, LTR 3 EDTA plasma 10 or 20-fold diluted, 60 min at 4° C. with C1INH 40 μg/ml, bdellin 50 μg/ml, hirudin 50 U/ml, PPACK 11 10 μM or CTI 100 μg/ml) [%] | % Residual activity, Thrombin ([2]; Table 3, thrombin 100 nM with ten-fold diluted normal EDTA plasma added, substrate AGLTR-pNA, 60 min at 4° C. with hirudin 50 U/ml or PPACK 11 10 μM) [%] | % Residual activity, β-FXIIa [3] [%] | % Residual activity, C1s [4] [%] | % Residual activity, LTR 1 [1, 8] [%] | % Residual activity, LTR 2 [1, 9] [%] | % Residual activity, LTR 3 [1, 10] [%] | % Residual activity, Thrombin [2, 11] [%] | % Residual activity, Trypsin [6] [%] | % Residual activity, Plasmin [7] [%]
only partially effective | – | – | but not C1s | 3.5 | efficiently inhibited | efficiently inhibited | efficiently inhibited | aprotinin | – | – | – | – | 106.0 | 104.8 | 35.3 | 40.2 | 21.4 | 84.6 | 4.8 | 2.4
only partially effective | – | – | but not C1s | 2.2 | efficiently inhibited | efficiently inhibited | efficiently inhibited | SBTI: soybean trypsin inhibitor, purchased from Sigma Chemical (protein, UniProt P01070 25-205, looked up) Trypsin inhibitor A: DFVLDNEGNPLENGGTYYILSDITAFGGIRAAPTGNERCPLTVVQSRNELDKGIGTIISSPYRIRFIAEGHPLSLKFDSFAVIMLCVGIPTEWSVVEDLPEGPAVKIGENKDAMDGWFRLERVSDDEFNNYKLVFCPQQAEDDKCGDIGISIDHDDGTRRLVVSKNKPLVVQFQKLDKESL | – | – | – | – | 109.1 | 123.6 | 44.2 | 61.9 | 28.8 | 46.7 | 5.3 | 3.7

Molecule | Inhibition of the LTR plasma peptidase activity, in words [1] | Inhibition of thrombin by hirudin (FIG. 8), in words ([2]; 50 U/ml hirudin, substrate AGLTR-pNA, versus time at 37° C.) | Inhibition of thrombin, in words ([2]; Table 3) | Inhibition of C1s, in words [4] | % Residual activity, Plasma Kallikrein [5] [%] | Inhibition of purified plasma kallikrein activity, in words [5] | Inhibition of trypsin amidolytic activity, in words [6] | Inhibition of plasmin amidolytic activity, in words [7] | % Residual activity, LTR 1 ([1]; Table 3, LTR 1 EDTA plasma 10 or 20-fold diluted, 60 min at 4° C. with C1INH 40 μg/ml, bdellin 50 μg/ml, hirudin 50 U/ml, PPACK 11 10 μM or CTI 100 μg/ml) [%] | % Residual activity, LTR 2 ([1]; Table 3, LTR 2 EDTA plasma 10 or 20-fold diluted, 60 min at 4° C. with C1INH 40 μg/ml, bdellin 50 μg/ml, hirudin 50 U/ml, PPACK 11 10 μM or CTI 100 μg/ml) [%] | % Residual activity, LTR 3 ([1]; Table 3, LTR 3 EDTA plasma 10 or 20-fold diluted, 60 min at 4° C. with C1INH 40 μg/ml, bdellin 50 μg/ml, hirudin 50 U/ml, PPACK 11 10 μM or CTI 100 μg/ml) [%] | % Residual activity, Thrombin ([2]; Table 3, thrombin 100 nM with ten-fold diluted normal EDTA plasma added, substrate AGLTR-pNA, 60 min at 4° C. with hirudin 50 U/ml or PPACK 11 10 μM) [%] | % Residual activity, β-FXIIa [3] [%] | % Residual activity, C1s [4] [%] | % Residual activity, LTR 1 [1, 8] [%] | % Residual activity, LTR 2 [1, 9] [%] | % Residual activity, LTR 3 [1, 10] [%] | % Residual activity, Thrombin [2, 11] [%] | % Residual activity, Trypsin [6] [%] | % Residual activity, Plasmin [7] [%]
Hirudin | failed to reduce the plasma peptidase activity; also recorded: not inhibited | effectively inhibited | a very effective thrombin inhibitor | – | – | – | – | – | 100.4 | 99.5 | 104.1 | 2.6 | – | – | – | – | – | – | – | –
